Experimental data reported in patent publication EP4725507A1, “POLYPEPTIDE CONJUGATE, PHARMACEUTICAL COMPOSITION CONTAINING POLYPEPTIDE CONJUGATE AND USE THEREOF” (Nanjing Anji Biotechnology Co., Ltd., priority 2023, dated 2025).
Converted amounts (≈) assume the structure as drawn. Read-outs that look alike come from different tables or passages of the source. Peptide text beside a SMILES is read from it. * marks the point of attachment. Paclitaxel(2'-O-succinyl) = CC(=O)O[C@H]1C(=O)[C@@]2(C)[C@H]([C@H](OC(=O)c3ccccc3)[C@]3(O)C[C@H](OC(=O)[C@H](OC(=O)CCC(=O)*)[C@@H](NC(=O)c4ccccc4)c4ccccc4)C(C)=C1C3(C)C)[C@]1(OC(C)=O)CO[C@@H]1C[C@@H]2O

What was measured:
[1] = tested on: ASPC-1 (human pancreatic cancer cells); assay: Tumor cell proliferation inhibition (CCK8); type: cell-based; conditions: IC50 of free drug / IC50 of polypeptide conjugate
From the text: (§1) Human highly metastatic hepatocellular carcinoma cells HCCLM3, human highly metastatic gastric cancer cells MKN45, human gastric cancer cells BGC-823 and MGC-803, non-small cell lung cancer cells A549, human pancreatic cancer cells ASPC-1, human colon cancer cells LoVo, human ovarian cancer cells A2780, human cervical cancer cells SiHa, human malignant melanoma cells SK-mel-2 and M14, human osteosarcoma cells Saos-2, human bladder transitional cell carcinoma cells T24, human brain glioblastoma cells U87-MG, human lymphoma cells Raji, and human epidermal cancer cells A431 were selected for the experiment. Among them, HCCLM3 cells, MKN45 cells, BGC-823 cells, MGC-803 cells, A431 cells and A549 cells were provided by Nanjing Anji Biotechnology Co., Ltd., and the other cells were provided by Nanjing Ouji Pharmaceutical Technology Service Co., Ltd.
(§2) The aforementioned tumor cells were preserved in a medium containing 10% fetal bovine serum and 1% penicillin-streptomycin, and incubated at 37°C with 5% CO2 and 95% humidity. The aforementioned tumor cells were cultured in T75 flasks with an experimental cell density of 80%. The aforementioned tumor cell lines were mycoplasma-negative.
(§3) Tumor cells in the logarithmic growth phase were taken for the experiment. The cells were digested, counted, and prepared into a cell suspension with a concentration of 1×10^5 cells/mL, which was then inoculated into a 96-well plate (100 µL per well). The 96-well plate was incubated in a 37°C, 5% CO2 incubator for 24 hours. […] After incubating the plate in the incubator for 72 h, the cell morphology of each group was observed under a microscope. Then, 10 µL of CCK8 solution (Nanjing Enjing Biotechnology Co., Ltd.) was added to each well, and the plate was further incubated in the cell incubator for 4 h. After incubation, the absorbance was measured at 450 nm, and the tumor cell proliferation inhibition rate was calculated. The efficiency ratio was the ratio of the IC50 value of the free drug to that of the polypeptide conjugate. Table 1 Tumor cell proliferation inhibition rates of polypeptide conjugates

[2] = tested on: SK-mel-2 (human malignant melanoma cells); assay: Tumor cell proliferation inhibition (CCK8); type: cell-based; conditions: IC50 of free drug / IC50 of polypeptide conjugate
From the text: as §1, §2, §3

[3] = tested on: M14 (human malignant melanoma cells); assay: Tumor cell proliferation inhibition (CCK8); type: cell-based; conditions: IC50 of free drug / IC50 of polypeptide conjugate
From the text: as §1, §2, §3

[4] = tested on: SiHa (human cervical cancer cells); assay: Tumor cell proliferation inhibition (CCK8); type: cell-based; conditions: IC50 of free drug / IC50 of polypeptide conjugate
From the text: as §1, §2, §3

[5] = tested on: HCCLM3 (human highly metastatic hepatocellular carcinoma cells); assay: Tumor cell proliferation inhibition (CCK8); type: cell-based; conditions: IC50 of free drug / IC50 of polypeptide conjugate
From the text: as §1, §2, §3

[6] = tested on: U87-MG (human brain glioblastoma cells); assay: Tumor cell proliferation inhibition (CCK8); type: cell-based; conditions: IC50 of free drug / IC50 of polypeptide conjugate
From the text: as §1, §2, §3

[7] = tested on: A549 (non-small cell lung cancer cells); assay: Tumor cell proliferation inhibition (CCK8); type: cell-based; conditions: IC50 of free drug / IC50 of polypeptide conjugate
From the text: as §1, §2, §3

[8] = tested on: LoVo (human colon cancer cells); assay: Tumor cell proliferation inhibition (CCK8); type: cell-based; conditions: IC50 of free drug / IC50 of polypeptide conjugate
From the text: as §1, §2, §3

[9] = Metabolism in liver microsomes; type: in vitro ADME; conditions: for k / microsomal CLint at 1 µM / half-life at 1 µM: NADPH, 37°C; for microsomal CLint at 1 µM: read-out: CLint(mic); for half-life at 1 µM: read-out: t½
Experimental: 1.85 mg of DOC-AI (or 1.81 mg of PTX-AI) was precisely weighed, 1 mL of DMSO was added, dissolved and mixed well to obtain 1 mM stock solution. 1 mM stock solution was diluted with methanol to 100 µM working solution for sample incubation. 12.5 µL of 20 mg/mL liver microsomes (mouse-derived, Shanghai Quanyang Trading Co., Ltd., batch number: MIC255038; rat-derived, Shanghai Quanyang Trading Co., Ltd., batch number: MIC254034; dog-derived, Shanghai Quanyang Trading Co., Ltd., batch number: MIC257015; monkey-derived, Ruide Liver Disease Research (Shanghai) Co., Ltd., batch number: SYXS; human-derived, Shanghai Quanyang Trading Co., Ltd., batch number: 1210097), 432.5 µL of 100 mM PBS, 25 µL of 20 mM NADPH, and 25 µL of 100 mM MgCl2 were added into a 96-well plate, and after mixing, pre-incubated at 37°C for 5 min. 5 µL of 100 µM working solution was added to the 96-well plate to initiate the reaction. At the set time points, 50 µL of the reaction sample was taken and placed in an EP tube containing 100 µL of ice-cold acetonitrile, vortexed for inactivation, and stored at -90°C for testing. […] Table 4 Results of detection of DOC-AI metabolism in liver microsomes

[10] = Solubility in water (HPLC, saturated solution); type: physicochemical; conditions: for solubility thermodynamic at 15 min: in water (ultrapure), HPLC; for Fold Increase: solubility in water of the conjugate versus the free drug (DOC or PTX)
Experimental: 25, 50, 100, 200, 300, and 400 µL of the above stock solutions were precisely measured, added into 1 mL volumetric flasks, and diluted to the mark with methanol to obtain a series of standard solutions with concentrations of 25, 50, 100, 200, 300, and 400 µg/mL, respectively. The peak areas of the series of standard solutions were detected by HPLC (mobile phase: 0.065% TFA in water + 0.05% TFA; chromatographic column: YMC-Triart C18; wavelength: 220 nm) to construct a concentration-peak area standard curve, where the abscissa represents concentration and the ordinate represents peak area.
The peak area of the sample was detected by HPLC, and its saturation in water was calculated through the concentration-peak area standard curve. Table 6 Results of detection of solubility of polypeptide conjugates in water

[11] = tested on: Raji (human lymphoma cells); assay: Tumor cell proliferation inhibition (CCK8); type: cell-based; conditions: IC50 of free drug / IC50 of polypeptide conjugate
From the text: as §1, §2, §3

[12] = tested on: Saos-2 (human osteosarcoma cells); assay: Tumor cell proliferation inhibition (CCK8); type: cell-based; conditions: IC50 of free drug / IC50 of polypeptide conjugate
From the text: as §1, §2, §3

[13] = tested on: A2780 (human ovarian cancer cells); assay: Tumor cell proliferation inhibition (CCK8); type: cell-based; conditions: IC50 of free drug / IC50 of polypeptide conjugate
From the text: as §1, §2, §3

[14] = tested on: T24 (human bladder transitional cell carcinoma cells); assay: Tumor cell proliferation inhibition (CCK8); type: cell-based; conditions: IC50 of free drug / IC50 of polypeptide conjugate
From the text: as §1, §2, §3

[15] = Human liver microsomes 0.5 mg/mL
[16] = Monkey liver microsomes 0.5 mg/mL
[17] = Mouse liver microsomes 0.5 mg/mL

Compound	Efficiency Ratios [5]	Efficiency Ratios [7]	CLint(liver) ([9]; Dog liver microsomes 0.5 mg/mL)	Clearance Rate Level ([9]; Dog liver microsomes 0.5 mg/mL)	Hepatic Extraction Ratio (EH) ([9]; Dog liver microsomes 0.5 mg/mL)	k ([9]; Dog liver microsomes 0.5 mg/mL)	microsomal CLint at 1 µM ([9]; Dog liver microsomes 0.5 mg/mL)	half-life at 1 µM ([9]; Dog liver microsomes 0.5 mg/mL)	CLint(liver) [9, 15]	Clearance Rate Level [9, 15]	Hepatic Extraction Ratio (EH) [9, 15]	k [9, 15]	microsomal CLint at 1 µM [9, 15]	half-life at 1 µM [9, 15]	CLint(liver) [9, 16]	Clearance Rate Level [9, 16]	Hepatic Extraction Ratio (EH) [9, 16]	k [9, 16]	microsomal CLint at 1 µM [9, 16]	half-life at 1 µM [9, 16]	further results
CC(=O)O[C@@]12CO[C@@H]1C[C@H](O)[C@@]1(C)C(=O)[C@H](O)C3=C(C)[C@@H](OC(=O)[C@H](OC(=O)CCC(=O)N[C@@H](CCCNC(=N)N)C(=O)N[C@@H](CO)C(=O)N4CCC[C@H]4C(=O)N[C@@H](Cc4ccc(O)cc4)C(=O)N[C@@H](C)C(=O)N[C@@H](CC(N)=O)C(=O)N[C@@H](CO)C(=O)O)[C@@H](NC(=O)OC(C)(C)C)c4ccccc4)C[C@@](O)([C@@H](OC(=O)c4ccccc4)[C@H]21)C3(C)C [DOC-AI]	1.63	1.39	66.2 mL/min/kg	Medium	0.682	0.0230	45.9 µL/min/mg	30.2 min	23.4 mL/min/kg	Medium	0.531	0.0130	26 µL/min/mg	53.3 min	140 mL/min/kg	High	0.763	0.0520	104 µL/min/mg	13.3 min	Efficiency Ratios [1]: 2.31; Efficiency Ratios [2]: 1.00; Efficiency Ratios [3]: 1.21; Efficiency Ratios [4]: 3.90; Efficiency Ratios [6]: 2.05; Efficiency Ratios [8]: 1.18; CLint(liver) [9, 17]: 324 mL/min/kg; Clearance Rate Level [9, 17]: High; Hepatic Extraction Ratio (EH) [9, 17]: 0.783; k [9, 17]: 0.0410; microsomal CLint at 1 µM [9, 17]: 81.9 µL/min/mg; half-life at 1 µM [9, 17]: 16.9 min; CLint(liver) ([9]; Rat liver microsomes 0.5 mg/mL): 108 mL/min/kg; Clearance Rate Level ([9]; Rat liver microsomes 0.5 mg/mL): Medium; Hepatic Extraction Ratio (EH) ([9]; Rat liver microsomes 0.5 mg/mL): 0.662; k ([9]; Rat liver microsomes 0.5 mg/mL): 0.0301; microsomal CLint at 1 µM ([9]; Rat liver microsomes 0.5 mg/mL): 60.1 µL/min/mg; half-life at 1 µM ([9]; Rat liver microsomes 0.5 mg/mL): 23.1 min; solubility thermodynamic at 15 min [10]: 4430 µg/mL (≈ 2630 µM); Fold Increase [10]: 1.62×10^5
CC(=O)O[C@H]1C(=O)[C@@]2(C)[C@H]([C@H](OC(=O)c3ccccc3)[C@]3(O)C[C@H](OC(=O)[C@H](OC(=O)CCC(=O)N[C@@H](CCCNC(=N)N)C(=O)N[C@@H](CO)C(=O)N4CCC[C@H]4C(=O)N[C@@H](Cc4ccc(O)cc4)C(=O)N[C@@H](C)C(=O)N[C@@H](CC(N)=O)C(=O)N[C@@H](CO)C(=O)O)[C@@H](NC(=O)c4ccccc4)c4ccccc4)C(C)=C1C3(C)C)[C@]1(OC(C)=O)CO[C@@H]1C[C@@H]2O [PTX-AI] ({Paclitaxel(2'-O-succinyl)}-RSPYANS-OH)	3.70	2.05	81.4 mL/min/kg	High	0.725	0.0283	56.6 µL/min/mg	24.5 min	26.6 mL/min/kg	Medium	0.562	0.0148	29.5 µL/min/mg	46.9 min	148 mL/min/kg	High	0.772	0.0548	110 µL/min/mg	12.7 min	Efficiency Ratios [11]: 1.09; Efficiency Ratios [12]: 1.47; Efficiency Ratios [13]: 1.11; Efficiency Ratios [14]: 1.78; CLint(liver) [9, 17]: 405 mL/min/kg; Clearance Rate Level [9, 17]: High; Hepatic Extraction Ratio (EH) [9, 17]: 0.818; k [9, 17]: 0.0511; microsomal CLint at 1 µM [9, 17]: 102 µL/min/mg; half-life at 1 µM [9, 17]: 13.6 min; CLint(liver) ([9]; Rat liver microsomes 0.5 mg/mL): 122 mL/min/kg; Clearance Rate Level ([9]; Rat liver microsomes 0.5 mg/mL): Medium; Hepatic Extraction Ratio (EH) ([9]; Rat liver microsomes 0.5 mg/mL): 0.689; k ([9]; Rat liver microsomes 0.5 mg/mL): 0.0339; microsomal CLint at 1 µM ([9]; Rat liver microsomes 0.5 mg/mL): 67.8 µL/min/mg; half-life at 1 µM ([9]; Rat liver microsomes 0.5 mg/mL): 20.4 min; solubility thermodynamic at 15 min [10]: 5.56 µg/mL (≈ 3.21 µM); Fold Increase [10]: 46.33
